From the supplement of paper PMC10065799, “High-throughput profiling of sequence recognition by tyrosine kinases and SH2 domains using bacterial peptide display” (eLife, 2023)

target: Grb2 SH2 (UniProt P62993); assay: SH2 binding enrichment of the phosphorylated peptide, bacterial display (enrichment ratio); higher = better substrate or ligand; peptides without Tyr show the background
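Throughout, for SH2 binding enrichment of the phosphorylated peptide, bacterial display: peptide library displayed on the E. coli surface as eCPX fusions, selected cells deep-sequenced, score is each peptide's frequency after selection divided by its frequency in the input.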

Chain of Grb2 SH2 (P62993 whole entry, looked up, the tested form may be a part): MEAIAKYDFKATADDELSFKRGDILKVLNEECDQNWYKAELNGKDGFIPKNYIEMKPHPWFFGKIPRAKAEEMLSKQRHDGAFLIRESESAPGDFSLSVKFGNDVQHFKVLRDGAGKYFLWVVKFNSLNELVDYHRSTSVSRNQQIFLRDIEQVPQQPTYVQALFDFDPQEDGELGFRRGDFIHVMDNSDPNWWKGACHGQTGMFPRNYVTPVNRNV

Point of comparison: KDQGTYEDYVE [MYL6_Y86], SH2 binding enrichment 0.755. Against it:
- PATINYLFEKG [NDUFS8_Y84_P85L] — higher, 1.05
- PSRKDYETYQP [CTNND2_Y1154] — higher, 0.905
- AHLTEYLSTHY [UQCRC1_Y219_D215H] — higher, 0.845
- YEEDSYVTRSQ [RET_Y905_K907T] — higher, 0.906
- FKTPTYPFLLP [PLD2_Y578_YF] — higher, 0.971
- SFLSFYTSHVQ [NEFL_Y443_P440L_YF] — higher, 1.41
- EYDRLYEEYTR [PIK3R1_Y467] — lower, 0.728
- RRIFSYRGHLW [VHL_Y112_H110Y_YF] — higher, 1.07
- SSQHRYSTPHA [RAF1_Y232] — lower, 0.714
- SWSTSYSGFRC [NKAPL_Y91_Y96C_YF] — higher, 0.87
- LYEDHYLLGTS [ASS1_Y87_R86H] — higher, 0.9
- PPKFFYTRKLL [CYBB_Y41] — higher, 1.01
- KKKKQYKGKYL [CASK_Y708_D710G] — lower, 0.669
- IGMFSYVMLAS [GGCX_Y301] — higher, 0.841
- PADCRYFTFPQ [GAMT_Y222_A224T_YF] — higher, 1.33
- LRAGVYPEKDQ [DNM2_Y626] — lower, 0.611
- AAVDNYCRHNY [HLA-DRB1_Y107_T106N] — higher, 0.765
- LTERGYSFVTT [ACTA1_Y200] — higher, 0.794
- CTTIHYNYRCN [TP53_Y234_M237R] — higher, 1.5
- HDHYGYRQSVT [CD55_Y245_R240H] — higher, 0.895
- NKFTTYLPWLP [C9orf24_Y126_R129W_YF] — higher, 1.19
- LLLLFCVVRFC [MPZ_Y177_Y177C_YF] — higher, 1.47
- CTTIHYNYMSN [TP53_Y234_C238S] — higher, 0.934
- AVLSLCASGRT [ACTA2_Y145_Y145C] — higher, 0.807
- SIYKDYYRYNF [PLA2G2D_Y85] — higher, 0.983
- NTQRPYFKGGG [TYROBP_Y111_YF] — higher, 1.04
- ILTLKYPIERG [ACTA1_Y71_H75R] — higher, 0.901
- LSAPCYLNRIS [HEXA_Y421_W420C] — higher, 1.14
- MKNDLYQTPLH [NFKB1_Y582_R578K] — higher, 0.774
- SGAWSYNTSTE [SELE_Y24] — higher, 0.802
- FFHCTYKKRMI [CLEC12A_Y242_YF] — higher, 1.28
- GIFKDYFRFNF [PLA2G2D_Y85_S80G_YF] — higher, 1.82

target: c-Src SH2; assay: as above

Point of comparison: AHLTEYLSTHY [UQCRC1_Y219_D215H], SH2 binding enrichment 0.511. Against it:
- PATINYLFEKG [NDUFS8_Y84_P85L] — higher, 0.611
- PSRKDYETYQP [CTNND2_Y1154] — higher, 0.597
- YEEDSYVTRSQ [RET_Y905_K907T] — higher, 2.16
- FKTPTYPFLLP [PLD2_Y578_YF] — higher, 0.657
- SFLSFYTSHVQ [NEFL_Y443_P440L_YF] — higher, 1.25
- EYDRLYEEYTR [PIK3R1_Y467] — higher, 3.83
- RRIFSYRGHLW [VHL_Y112_H110Y_YF] — lower, 0.498
- SSQHRYSTPHA [RAF1_Y232] — higher, 2.11
- SWSTSYSGFRC [NKAPL_Y91_Y96C_YF] — lower, 0.43
- LYEDHYLLGTS [ASS1_Y87_R86H] — higher, 0.571
- PPKFFYTRKLL [CYBB_Y41] — lower, 0.461
- KKKKQYKGKYL [CASK_Y708_D710G] — lower, 0.436
- IGMFSYVMLAS [GGCX_Y301] — lower, 0.424
- PADCRYFTFPQ [GAMT_Y222_A224T_YF] — higher, 2.07
- LRAGVYPEKDQ [DNM2_Y626] — lower, 0.509
- AAVDNYCRHNY [HLA-DRB1_Y107_T106N] — higher, 0.631
- LTERGYSFVTT [ACTA1_Y200] — higher, 7.8
- CTTIHYNYRCN [TP53_Y234_M237R] — higher, 1.36
- HDHYGYRQSVT [CD55_Y245_R240H] — higher, 0.654
- NKFTTYLPWLP [C9orf24_Y126_R129W_YF] — higher, 0.815
- LLLLFCVVRFC [MPZ_Y177_Y177C_YF] — higher, 0.857
- CTTIHYNYMSN [TP53_Y234_C238S] — higher, 1.65
- AVLSLCASGRT [ACTA2_Y145_Y145C] — lower, 0.488
- SIYKDYYRYNF [PLA2G2D_Y85] — higher, 0.908
- NTQRPYFKGGG [TYROBP_Y111_YF] — higher, 0.619
- ILTLKYPIERG [ACTA1_Y71_H75R] — higher, 0.691
- LSAPCYLNRIS [HEXA_Y421_W420C] — higher, 0.594
- MKNDLYQTPLH [NFKB1_Y582_R578K] — higher, 0.585
- SGAWSYNTSTE [SELE_Y24] — higher, 0.536
- KDQGTYEDYVE [MYL6_Y86] — higher, 0.784
- FFHCTYKKRMI [CLEC12A_Y242_YF] — higher, 0.944
- GIFKDYFRFNF [PLA2G2D_Y85_S80G_YF] — higher, 1.23

target: SHP2-C SH2; assay: as above

Point of comparison: AVLSLCASGRT [ACTA2_Y145_Y145C], SH2 binding enrichment 0.857. Against it:
- PATINYLFEKG [NDUFS8_Y84_P85L] — lower, 0.663
- PSRKDYETYQP [CTNND2_Y1154] — lower, 0.818
- AHLTEYLSTHY [UQCRC1_Y219_D215H] — lower, 0.724
- YEEDSYVTRSQ [RET_Y905_K907T] — lower, 0.628
- FKTPTYPFLLP [PLD2_Y578_YF] — lower, 0.745
- SFLSFYTSHVQ [NEFL_Y443_P440L_YF] — higher, 1.23
- EYDRLYEEYTR [PIK3R1_Y467] — lower, 0.678
- RRIFSYRGHLW [VHL_Y112_H110Y_YF] — lower, 0.495
- SSQHRYSTPHA [RAF1_Y232] — higher, 0.898
- SWSTSYSGFRC [NKAPL_Y91_Y96C_YF] — lower, 0.57
- LYEDHYLLGTS [ASS1_Y87_R86H] — lower, 0.565
- PPKFFYTRKLL [CYBB_Y41] — lower, 0.709
- KKKKQYKGKYL [CASK_Y708_D710G] — lower, 0.302
- IGMFSYVMLAS [GGCX_Y301] — lower, 0.604
- PADCRYFTFPQ [GAMT_Y222_A224T_YF] — higher, 1.78
- LRAGVYPEKDQ [DNM2_Y626] — lower, 0.779
- AAVDNYCRHNY [HLA-DRB1_Y107_T106N] — lower, 0.72
- LTERGYSFVTT [ACTA1_Y200] — higher, 6.24
- CTTIHYNYRCN [TP53_Y234_M237R] — higher, 1.39
- HDHYGYRQSVT [CD55_Y245_R240H] — lower, 0.833
- NKFTTYLPWLP [C9orf24_Y126_R129W_YF] — higher, 0.89
- LLLLFCVVRFC [MPZ_Y177_Y177C_YF] — higher, 1.77
- CTTIHYNYMSN [TP53_Y234_C238S] — higher, 0.873
- SIYKDYYRYNF [PLA2G2D_Y85] — higher, 1.92
- NTQRPYFKGGG [TYROBP_Y111_YF] — higher, 1.02
- ILTLKYPIERG [ACTA1_Y71_H75R] — higher, 1.01
- LSAPCYLNRIS [HEXA_Y421_W420C] — higher, 0.888
- MKNDLYQTPLH [NFKB1_Y582_R578K] — lower, 0.604
- SGAWSYNTSTE [SELE_Y24] — higher, 0.886
- KDQGTYEDYVE [MYL6_Y86] — lower, 0.553
- FFHCTYKKRMI [CLEC12A_Y242_YF] — higher, 1.15
- GIFKDYFRFNF [PLA2G2D_Y85_S80G_YF] — higher, 1.74

system: c-Abl (mouse); assay: phosphorylation enrichment, bacterial display (enrichment ratio); higher = better substrate or ligand; peptides without Tyr show the background;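 note: 11-residue human phosphosite peptides and single-mutation variants displayed on the E. coli surface, counted by deep sequencing, each peptide's frequency after selection divided by its frequency in the unselected input library; frequency after pTyr selection over input frequency; kinase dosed for 20-30% of maximal phosphorylation in three min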

Point of comparison: SFLSFYTSHVQ [NEFL_Y443_P440L_YF], phosphorylation enrichment 0.693. Against it:
- PATINYLFEKG [NDUFS8_Y84_P85L] — lower, 0.293
- PSRKDYETYQP [CTNND2_Y1154] — higher, 0.95
- AHLTEYLSTHY [UQCRC1_Y219_D215H] — lower, 0.475
- YEEDSYVTRSQ [RET_Y905_K907T] — lower, 0.69
- FKTPTYPFLLP [PLD2_Y578_YF] — higher, 0.833
- EYDRLYEEYTR [PIK3R1_Y467] — higher, 1.34
- RRIFSYRGHLW [VHL_Y112_H110Y_YF] — higher, 1.1
- SSQHRYSTPHA [RAF1_Y232] — lower, 0.387
- SWSTSYSGFRC [NKAPL_Y91_Y96C_YF] — higher, 0.761
- LYEDHYLLGTS [ASS1_Y87_R86H] — higher, 1.1
- PPKFFYTRKLL [CYBB_Y41] — higher, 0.694
- KKKKQYKGKYL [CASK_Y708_D710G] — lower, 0.529
- IGMFSYVMLAS [GGCX_Y301] — higher, 0.997
- PADCRYFTFPQ [GAMT_Y222_A224T_YF] — higher, 0.944
- LRAGVYPEKDQ [DNM2_Y626] — higher, 0.803
- AAVDNYCRHNY [HLA-DRB1_Y107_T106N] — lower, 0.502
- LTERGYSFVTT [ACTA1_Y200] — higher, 0.941
- CTTIHYNYRCN [TP53_Y234_M237R] — higher, 0.726
- HDHYGYRQSVT [CD55_Y245_R240H] — lower, 0.622
- NKFTTYLPWLP [C9orf24_Y126_R129W_YF] — higher, 1.6
- LLLLFCVVRFC [MPZ_Y177_Y177C_YF] — higher, 0.933
- CTTIHYNYMSN [TP53_Y234_C238S] — lower, 0.501
- AVLSLCASGRT [ACTA2_Y145_Y145C] — lower, 0.606
- SIYKDYYRYNF [PLA2G2D_Y85] — higher, 5.64
- NTQRPYFKGGG [TYROBP_Y111_YF] — lower, 0.574
- ILTLKYPIERG [ACTA1_Y71_H75R] — lower, 0.581
- LSAPCYLNRIS [HEXA_Y421_W420C] — lower, 0.631
- MKNDLYQTPLH [NFKB1_Y582_R578K] — higher, 5.91
- SGAWSYNTSTE [SELE_Y24] — lower, 0.55
- KDQGTYEDYVE [MYL6_Y86] — higher, 0.866
- FFHCTYKKRMI [CLEC12A_Y242_YF] — lower, 0.532
- GIFKDYFRFNF [PLA2G2D_Y85_S80G_YF] — higher, 0.897
